Laboratory results published in patent US20240083999A1 (TRUSTEES OF TUFTS COLLEGE, published 2024).

T1: mouse interleukin 6 (mIL-6) (mouse, UniProt P08505 25-211)
T1 construct: the whole entry is named; also called mouse IL-6; mouse IL6
T1 sequence: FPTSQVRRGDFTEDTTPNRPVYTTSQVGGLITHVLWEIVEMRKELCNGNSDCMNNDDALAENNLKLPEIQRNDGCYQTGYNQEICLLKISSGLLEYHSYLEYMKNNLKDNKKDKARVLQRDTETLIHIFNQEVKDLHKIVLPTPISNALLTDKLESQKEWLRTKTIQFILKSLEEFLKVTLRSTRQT


Assays:
[1] = target: T2, human interleukin 6 (hIL-6) (human, UniProt P05231 30-212); test: cell-based or functional assay
[2] = target: T2, human interleukin 6 (hIL-6); test: dilution ELISA, plate-coated hIL-6
Description: Based on sequence analysis, five clonally-independent families of the anti-hIL-6 VHHs, i.e., having sequence homology derived from independent B cell origins, were obtained. One family represented the majority of VHH family members that strongly bound to hIL-6 as determined by ELISA; therefore, multiple variants of this family were also sequenced. The anti-hIL-6 VHH coding DNA of selected VHHs was re-cloned into E. coli expression vectors and the anti-hIL-6 VHH proteins were expressed and purified using standard methods. The purified anti-hIL-6 VHHs were subjected to dilution ELISA analysis to assess their apparent affinities for binding to hIL-6. […] (See, e.g., Mukherjee, J., et al., 2012 PLoS ONE, 7, e299411). The EC₅₀ value of JYK-D12 for binding hTL-6 as determined by ELISA was about 0.4 nM.
Maxisorp ELISA plates (Nunc; Thermo Fisher USA) coated with recombinantly produced hIL-6 protein (0.5-5 μg/ml) overnight at 4° C. were used for immuno-binding assays (ELISA). Plates were washed 3 times with 1×PBS+0.1% Tween, followed by washing 3 times with 1×PBS. Washed plates were blocked (4-5% non-fat dry milk in 1×PBS+0.1% Tween) for 1 hour at room temperature (RT) with rocking. Serially diluted (1:5) hIL-6 VHH binding molecules targeting hIL-6, diluted in blocking solution, were incubated for 1 hour at RT with rocking and washed as above. […]

[3] = target: T1, mouse interleukin 6 (mIL-6); test: told from an in vivo STAT3 phosphorylation Western blot (FIG. 7), not a direct binding assay
Procedure: Experiments were conducted to determine whether the representative anti-hIL-6 VHH antibody cross-reacted with mouse IL-6 in vivo. In this experiment, one group of C57BL/6 mice was injected intraperitoneally with 1 μg of mouse IL-6 (mIL-6) in PBS; another group of C57BL/6 mice was injected with 1 μg of mouse IL-6 (mIL-6) plus 0.4 μg anti-hIL-6 VHH antibody. The animals were euthanized 30 minutes post-injection; their livers were isolated; and protein was extracted. Western blot analyses were carried out to assess the phosphorylation of STAT3 using P-STAT3 Y705 antibody (1:1,000 dilution) and STAT3 antibody (1:2,000 dilution), (Cell Signaling Technology (CST), Danvers, MA). The results of the Western blot analysis to assess the cross-reactivity of the anti-hIL-6 VHH antibody in mIL-6-induced hepatic STAT activation are shown in FIG. 7.

Binder | complete neutralization, 7TD1 cell proliferation (neutralization) assay [1] | also measured
hIL-6-binding VHH JYK-H9 (Trx/JYK-H9/E) (VHH, not shown: large carriers) VHH: QLQLVETGGGLVQPGGSLRLSCAASGFTLDYYAIGWFRQAPGKEREGVSCLSSSDRSTYYVDSVKGRFTISRDDDKNTAYLQMNSLKPEDTATYYCAAGTWDLKWGYNISACVGSYEYDYWGQGTQVTVSS | 0.0027 µg/mL | –
hIL-6-binding VHH JYK-A9 (Trx/JYK-A9/E) (VHH, not shown: large carriers) VHH: QVQLVESGGGLVQAGDSLTLSCAASGRPFSSFAMGWFRQAPGKEREFVAAITWSRGTTHYADSVKGRFTISGDNAKNTVFLQMNSLKPEDTAVYYCAAADGWKVVSTASPAYDYWGQGTQVTVSS | 2 µg/mL | –
hIL-6-binding VHH JYK-D12 (Trx/JYK-D12/E) (VHH, Expressed in E. coli as Trx/VHH/E fusion; also called JYK-D12 sh.ab1; expression vector JYR-3; not shown: Trx fusion partner of the construct Trx/JYK-D12/E) VHH: QLQLVESGGGLVQPGGSLGLSCAASGFTLAYYGIGWFRQAPGKEREGVACISSSDLSTYYADSVKGRFTISRDNAKDTVYLQMNSLKPEDTAVYYCAAGTWDLKFGYSRSNCVRSYEYDYWGQGTQVTVSS | 0.0009 µg/mL | EC50 [2]: ~400 pM; ED50, 7TD1 cell proliferation (neutralization) assay [1]: < 0.3 ng/mL
hIL-6-binding VHH JYK-A1 (Trx/JYK-A1/E) (VHH, not shown: large carriers) VHH: QLQLAETGGGLVQPGGSLRLSCAASGFTLDYYAVGWFRQAPGKEREGISCISSSDLKTYYADSVKGRFTISRDYAKSTVSLQMNSLKPEDTGVYYCAAGTWDLKFGYNISACVGSYEYDYWDQGTQVTVSS | 0.0247 µg/mL | –
JYK-D12/JYK-D12 homodimer (VHH, One polypeptide with two JYK-D12 units; also called VCR-108) QVQLVESGGGLVQPGGSLGLSCAASGFTLAYYGIGWFRQAPGKEREGVACISSSDLSTYYADSVKGRFTISRDNAKDTVYLQMNSLKPEDTAVYYCAAGTWDLKFGYSRSNCVRSYEYDYWGQGTQVTVSSGGGGSGGGGSGGGGSQVQLVESGGGLVQPGGSLGLSCAASGFTLAYYGIGWFRQAPGKEREGVACISSSDLSTYYADSVKGRFTISRDNAKDTVYLQMNSLKPEDTAVYYCAAGTWDLKFGYSRSNCVRSYEYDYWGQGTQVTVSS | – | effective dose against Tocilizumab, in vivo neutralization assay [1]: 1000 fold; binding result [3]: binds
